According to article PMC5073337:

Assays:
[1] = molecular target: SUMO2ΔGG, diglycine-deficient mouse SUMO2 mutant, adenovirally overexpressed (mouse) (UniProt P61957); experiment: proximity ligation; fixed NRVCM; primary antibodies against SUMO2/3 (Abcam, mouse) and CnA (Upstate, rabbit); cells infected with Ad LacZ, Ad S2 or Ad S2ΔGG with or without Ad ΔCnA; read-out: percentage of PLA-positive nuclei
[2] = molecular target: SUMO2, full-length mouse, adenovirally overexpressed (mouse) (UniProt P61957); experiment: as above

Row | increase of PLA signal on overexpression [1] | increase of PLA signal on overexpression [2] | PLA signal (percent) [1] | PLA signal (percent) [2] | Substance
1 | 17% | 14% | – | – | calcineurin A (endogenous, rat) (from UniProt P63329 1-521) (natural protein)
2 | – | – | 54% | 64% | constitutively active calcineurin A (from UniProt P63328 1-521) (enzyme)
